The values below come from the supplement of paper PMC11246515.

The data set can be described thus: total protein half-life in vivo (active degradation + dilution); higher = more stable protein.
[1] abbreviates: E. coli NCM3722 delta-clpP delta-lon delta-hslV, growth: N-lim chemostat, doubling time 6 h.
Where [2] appears, read: E. coli NCM3722 delta-clpP, growth: N-lim chemostat, doubling time 6 h.
The mark [3] stands for this setting: E. coli NCM3722 delta-lon, growth: N-lim chemostat, doubling time 6 h.
Setting [4] is: E. coli NCM3722 delta-smpB, growth: N-lim chemostat, doubling time 6 h.
The mark [5] stands for this setting: wild type E. coli NCM3722, growth: C-lim chemostat, doubling time 3 h.
Setting [6] is: wild type E. coli NCM3722, growth: C-lim chemostat, doubling time 6 h.
Where [7] appears, read: wild type E. coli NCM3722, growth: C-lim chemostat, doubling time 12 h.
Setting [8] is: wild type E. coli NCM3722, growth: N-lim chemostat, doubling time 6 h.
Setting [9] is: wild type E. coli NCM3722, growth: N-lim chemostat, doubling time 12 h.
The mark [10] stands for this setting: wild type E. coli NCM3722, growth: P-lim chemostat, doubling time 6 h.
[11] abbreviates: wild type E. coli NCM3722, growth: P-lim chemostat, doubling time 12 h.
Where [12] appears, read: E. coli NCM3722 delta-hslV, growth: N-lim chemostat, doubling time 6 h.

± gives the standard deviation of the averaged measurements.

In the case of “MKDERRPICEVVAESIERLIIDGVLKVGQPLPSERRLCEKLGFSRSALREGLTVLRGRGIIETAQGRDSRVARLNRVQDTSPLIHLFSTQPRTLYDLLDVRALLEGESARLAATLGTQADFVVITRCYEKMLAASENNKEISLIEHAQLDHAFHLAICQASHNQVLVFTLQSLTDLMFNSVFASVNNLYHRPQQKKQIDRQHARIYNAVLQRLPHVAQRAARDHVRTVKKNLHDIELEGHHLIRSAVPLEMNLS [P0ACL5]”, the “total protein half-life in vivo” value came out at 4.767 ± 0.025 h under setting [1]; 1.35 h under setting [2]; 1.21 h under setting [3]; 1.37 ± 0.029 h under setting [4]; 1.3 ± 0.1 h under setting [5]; 2.15 ± 0.25 h under setting [6]. Besides, the “total protein half-life in vivo” value is 2.35 ± 0.16 h under setting [7]; 1.21 ± 0.14 h under setting [8]; 1.68 ± 0.18 h under setting [9]; 1.56 ± 0.22 h under setting [10]; 2.65 ± 0.72 h under setting [11].
For the sequence “MPANARSHAVLTTESKVTIRGQTTIPAPVREALKLKPGQDSIHYEILPGGQVFMCRLGDEQEDHTMNAFLRFLDADIQNNPQKTRPFNIQQGKKLVAGMDVNIDDEIGDDE”, the “total protein half-life in vivo” value is 5.19 ± 0.069 h under setting [1]; 2.83 ± 0.037 h under setting [2]; 3.29 ± 0.22 h under setting [12]; 2.97 ± 0.61 h under setting [3]; 2.88 ± 0.047 h under setting [4]; > 4 h under setting [5]. In addition, the “total protein half-life in vivo” value was determined as 3.52 ± 0.75 h under setting [6]; 5.13 ± 1.2 h under setting [7]; 3.11 ± 0.63 h under setting [8]; 5.02 ± 0.3 h under setting [9]; 2.77 ± 0.39 h under setting [10]; 5.24 ± 0.056 h under setting [11].
As for “MSVKIVIKPNTYFDSVSLMSISTRANKLDGVEQAFVAMATEMNKGVLKNLGLLTPELEQAKNGDLMIVINGKSGADNEQLLVEIEELFNTKAQSGSHEARYATIGSAKKHIPESNLAVISVNGLFAAREARQALQNDLNVMLFSDNVSVEDELALKQLAHEKGLLMMGPDCGTAIINGAALCFGNAVRRGNIGIVGASGTGSQELSVRIHEFGGGVSQLIGTGGRDLSEKIGGLMMLDAIGMLENDPQTEIIALISKPPAPAVARKVLERARACRKPVVVCFLDRGETPVDEQGLQFARGTKEAALKAVMLSGVKQENLDLHTLNQPLIADVRARLQPQQKYIRGLFCGGTLCDETMFAVMEKHGDVYSNIQPDPEFRLKDINRSIKHTFLDFGDDDFTNGKPHPMIDPTNRISRLIEEARDPEVAVIVMDFVLGFGSHEDPVGSTIETIKEAKAIAAAEGRELIILAYVLGTDLDTPSLEQQSQMLLDAGVILASSSTNTGLLAREFICKGEEA”, the “total protein half-life in vivo” value under setting [1] stood at 4.99 h; the “total protein half-life in vivo” value under setting [2] turned out to be 6.9 h; the “total protein half-life in vivo” value under setting [12] was found to be 3.51 h; the “total protein half-life in vivo” value under setting [3] worked out at 3.92 h; the “total protein half-life in vivo” value under setting [4] was 3.47 ± 0.37 h; the “total protein half-life in vivo” value under setting [5] is 3.06 h. Moreover, the “total protein half-life in vivo” value runs as follows: under setting [6], 4.99 ± 0.41 h; under setting [7], 4.892 ± 0.0075 h; under setting [8], 5.14 h; under setting [9], 8.02 ± 1.4 h; under setting [10], 4.47 h; under setting [11], 7.02 h.
Consider “MKSATSAQRPYQEVGAMIRDLIIKTPYNPGERLPPEREIAEMLDVTRTVVREALIMLEIKGLVEVRRGAGIYVLDNSGSQNTDSPDANVCNDAGPFELLQARQLLESNIAEFAALQATREDIVKMRQALQLEERELASSAPGSSESGDMQFHLAIAEATHNSMLVELFRQSWQWRENNPMWIQLHSHLDDSLYRKEWLGDHKQILAALIKKDARAAKLAMWQHLENVKQRLLEFSNVDDIYFDGYLFDSWPLDKVDA”, for which the “total protein half-life in vivo” value reads like this: under setting [1], 4.94 ± 0.91 h; under setting [2], 4.94 ± 0.29 h; under setting [12], 2.75 ± 0.15 h; under setting [3], 3.04 ± 0.38 h; under setting [4], 2.82 ± 0.23 h; under setting [5], 2.21 ± 0.16 h. Besides, the “total protein half-life in vivo” value reads like this: under setting [6], 3.86 ± 0.058 h; under setting [7], 5.88 ± 0.11 h; under setting [8], 2.83 h; under setting [9], 3.494 ± 0.022 h; under setting [10], 3.22 ± 0.098 h; under setting [11], 5.72 ± 0.14 h.
In the case of “MKIRALLVAMSVATVLTGCQNMDSNGLLSSGAEAFQAYSLSDAQVKTLSDQACQEMDSKATIAPANSEYAKRLTTIANALGNNINGQPVNYKVYMAKDVNAFAMANGCIRVYSGLMDMMTDNEVEAVIGHEMGHVALGHVKKGMQVALGTNAVRVAAASAGGIVGSLSQSQLGNLGEKLVNSQFSQRQEAEADDYSYDLLRQRGISPAGLATSFEKLAKLEEGRQSSMFDDHPASAERAQHIRDRMSADGIK”, the “total protein half-life in vivo” value reads like this: under setting [1], 5.03 ± 0.95 h; under setting [2], 5.9 ± 0.43 h; under setting [12], 5.87 ± 0.4 h; under setting [4], 3.99 ± 0.98 h; under setting [5], 2.69 ± 0.21 h; under setting [6], 5.11 ± 0.41 h. The “total protein half-life in vivo” value is, setting by setting: under setting [7], 8.35 ± 1.9 h; under setting [8], 6.22 ± 0.35 h; under setting [9], 10.2 ± 2.9 h; under setting [10], 3.16 ± 0.24 h; under setting [11], 9.05 ± 5.4 h.
In the case of “MKTKVILSQQMASAIIAAGQEEAQKNNWSVSIAVADDGGHLLALSRMDDCAPIAAYISQEKARTAALGRRETKGYEEMVNNGRTAFVTAPLLTSLEGGVPVVVDGQIIGAVGVSGLTGAQDAQVAKAAAAVLAK [P0AEQ1]”, the “total protein half-life in vivo” value under setting [1] turned out to be 4.93 ± 0.46 h; the “total protein half-life in vivo” value under setting [2] was 4.12 ± 0.23 h; the “total protein half-life in vivo” value under setting [3] was 4.27 ± 0.26 h; the “total protein half-life in vivo” value under setting [4] amounted to 4.21 ± 0.32 h; the “total protein half-life in vivo” value under setting [5] was found to be 3.04 ± 0.057 h; the “total protein half-life in vivo” value under setting [6] turned out to be 5.267 ± 0.02 h. The “total protein half-life in vivo” value by setting is: under setting [7], 9.62 ± 0.24 h; under setting [8], 4.29 ± 0.12 h; under setting [9], 5.98 h; under setting [10], 5.43 ± 0.44 h; under setting [11], 11.6 ± 0.93 h.
